Experimental data reported in patent publication US20260125460A1 (Eli Lilly, published 2026).

Tests used:
human IL-34 [1] = biological target: T1, human IL-34 (human, UniProt Q6ZMJ4 21-242); assay: cell-based or functional assay
T1 sequence: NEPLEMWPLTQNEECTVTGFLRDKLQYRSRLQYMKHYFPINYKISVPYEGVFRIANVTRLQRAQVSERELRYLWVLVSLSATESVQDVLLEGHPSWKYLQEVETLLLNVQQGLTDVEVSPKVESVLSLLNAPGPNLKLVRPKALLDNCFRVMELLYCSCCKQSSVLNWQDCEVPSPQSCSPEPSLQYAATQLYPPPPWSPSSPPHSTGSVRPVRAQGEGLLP

human IL-34 [2] = biological target: T1, human IL-34; assay: competition ELISA; displacement of biotinylated human IL-34 (3.7 nM) from plate-bound hCSF1R_Fc
Description: (§1) CSF1R extracellular domain proteins (hCSF1R_Fc commercially available from R&D Cat #329-MR, cynomolgus CSF1R ECD-Fc (AAA is a linker between CSF1R extracellular domain and Fc) (SEQ ID NO: 34)) can be bound to an ELISA plate at concentrations of 30 nM in order to capture soluble biotinylated IL-34 and allowed to bind for one hour. After washing and blocking plate, biotinylated IL-34 may be added, then detected via streptavidin conjugated peroxidase. Concentrations of labeled IL-34 near the 80% binding level (EC₈₀) (3.7 nM) may be used in conjunction with a range of antibody concentrations (0-100 nM) to determine concentration of antibody required to displace IL-34 from CSF1R. After 1 hr incubation, IL-34 bound to CSF1R is detected via streptavidin conjugated peroxidase. The antibodies are assayed (n=2) and the average and standard deviation at each concentration are calculated. The potency of an antibody to displace IL-34 from CSF1R is reported as IC₅₀ (nM) with the calculated confidence interval (CI) in Table 4 and Table 5.

cynomolgus monkey IL-34 [3] = biological target: T2, cynomolgus monkey IL-34 (cynomolgus monkey, UniProt G7Q1L3 21-242); assay: competition ELISA; displacement of biotinylated cyno IL-34 from plate-bound cynomolgus CSF1R ECD-Fc
T2 construct: Biotinylated in the displacement ELISA; also called cyno IL-34
T2 sequence: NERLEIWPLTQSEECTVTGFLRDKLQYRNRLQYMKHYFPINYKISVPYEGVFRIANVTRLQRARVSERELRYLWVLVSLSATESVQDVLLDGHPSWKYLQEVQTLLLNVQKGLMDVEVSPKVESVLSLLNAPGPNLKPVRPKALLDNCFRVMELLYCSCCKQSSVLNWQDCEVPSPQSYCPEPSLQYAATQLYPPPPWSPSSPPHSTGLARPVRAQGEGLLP
Description: as §1

human IL-34 [4] = biological target: T1, human IL-34; assay: SPR, BIAcore 8K, 37 C; antibody captured on Protein A chip, IL-34 in flow; 1:1 fit; average of at least three experiments
Description: (§2) Binding affinity of anti-IL-34 monoclonal antibodies of the present disclosure to human and/or cynomolgus monkey (cyno) IL-34 may be determined by methods known in the art. […] For each cycle, 200 μL IL-34 is flowed over the immobilized antibody at 100 μL/minute, and then dissociated for 20 minutes. The chip surface is regenerated with 50 μL of glycine buffer at pH 1.5 at a flow rate of 100 μL/minute. The data are fit to a 1:1 Langmiur binding mode to derive kon, koff and to calculate KD.

cynomolgus monkey IL-34 [5] = biological target: T2, cynomolgus monkey IL-34; assay: as above
Description: as §2

- IC50 (ug/ml), neutralization of human IL-34 (100 ng/ml) induced luciferase reporter activity in hCSF1R expressing 293 SRE cells (human IL-34 [1]): 0.0533 µg/mL
- IC50 (human IL-34 [2]): 65.7 pM
- IC50 (cynomolgus monkey IL-34 [3]): 1400 pM
- Kd (human IL-34 [4]): 33.8 pM
- koff (human IL-34 [4]): 0.00019 s⁻¹
- kon (human IL-34 [4]): 5.6e+06 M⁻¹ s⁻¹
- Kd (cynomolgus monkey IL-34 [5]): 39 pM
- koff (cynomolgus monkey IL-34 [5]): 0.00031 s⁻¹
- kon (cynomolgus monkey IL-34 [5]): 8.1e+06 M⁻¹ s⁻¹
B1: Antibody 1 (antibody, human IgG4 S228P, kappa, F234A L235A, V domains shown)
VH: EVQLLESGGGLVQPGGSLRLSCAASGFAFSNYAMSWVRQAPGKGLEWVSAISASGGKTYYADSVKGRFTISRDNSKNTLYLQMNSLRAEDTAVYYCAKRGYLWHAFDHWGRGTLVTVSS
VL: EIVLTQSPGTLSLSPGERATLSCRASQSVYSSYLAWYQQKPGQAPRLLIYGASSRATGIPDRFSGSGSGTDFTLTISRLEPEDFAVYYCQVVGSSPPFTFGGGTKVEIKR
notes: Human anti-human IL-34 antibody; IgG4 PAA hinge/Fc without the C-terminal lysine; also called Exemplified Antibody 1; exemplified antibody 1
